According to publication PMC9637719:
Like-named read-outs stand apart in the source and are kept apart here. Values belong to the substance of their own block, whether it stands above or below them.

Columns and labels:
[1] = target: JetAB complex (JetA2B4), full-length JetA and JetB (Pseudomonas aeruginosa PA14); experiment: SEC + SEC-MALS
[2] = target: JetAB complex (JetA2B4), full-length JetA and JetB (Pseudomonas aeruginosa PA14); experiment: SEC + SEC-MALS; remark: listed apart in the source
[3] = target: JetC (Wadjet SMC ATPase subunit, P. aeruginosa PA14), tagless wild type (Pseudomonas aeruginosa PA14); experiment: SEC + SEC-MALS
[4] = target: JetAB complex (JetA2B4), full-length JetA and JetB (Pseudomonas aeruginosa PA14); experiment: SEC-MALS
[5] = target: JetD (Wadjet nuclease subunit, P. aeruginosa PA14) (Pseudomonas aeruginosa PA14); experiment: SEC + SEC-MALS

stoichiometry N (JetC per JetA2B4) [1]: 4
stoichiometry N (JetC per JetA2B4) [2]: 2
stoichiometry N [3]: 2
Substance: JetC (Wadjet SMC ATPase subunit, P. aeruginosa PA14), tagless wild type (natural protein)

Substance: JetC^head (JetC^E1022Q,L783A 1-284-[…]-781-1101) (domain or fragment)
stoichiometry N (JetC^head per JetA2B4) [4]: 2

stoichiometry N [5]: 2
Substance: JetD (Wadjet nuclease subunit, P. aeruginosa PA14) (natural protein)
